The values that follow come from the supplement of paper PMC9112550, “Optimization of the antimicrobial peptide Bac7 by deep mutational scanning” (BMC Biology, 2022).

For the series, the system named is Escherichia coli TOP10. Put plainly: shrunken log2 fold change of peptide-encoding DNA abundance (4.5 h post-induction vs induction); higher = less antimicrobial activity (less host growth inhibition). The settings on record: time post-induction: 4.5 h; library: site-saturation at positions 5, 18, 19, 20.
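Note: peptides expressed intracellularly from a pBAD plasmid library in pooled LB shake-flask culture, induced with 0.3% L-arabinose, DNA abundance read by NGS, three biological replicates, DESeq2 with apeglm shrinkage.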

Turning to RRIRQRPPRLPRPRPRPRHWPRP, the “shrunken log2 fold change” value worked out at 0.218.
As for RRIRKRPPRLPRPRPRPKNGPRP, the figure is 0.173; as for RRIRCRPPRLPRPRPRPDMWPRP, 0.104.
For RRIRPRPPRLPRPRPRPMDWPRP the value was 0.432; for RRIRLRPPRLPRPRPRPCYYPRP, -0.936.
For RRIRMRPPRLPRPRPRPLDWPRP the value was 0.474.
On to RRIRYRPPRLPRPRPRPCMWPRP, for which the “shrunken log2 fold change” value came to 0.0465.
For RRIRQRPPRLPRPRPRPWGHPRP the value was -0.0609.
RRIRIRPPRLPRPRPRPFMFPRP: the “shrunken log2 fold change” value is -0.745.
As for RRIRTRPPRLPRPRPRPKQPPRP, the figure is 0.0517.
For RRIRRRPPRLPRPRPRPVMQPRP the value was 0.316; for RRIRSRPPRLPRPRPRPHVCPRP, 0.0517.
For RRIRWRPPRLPRPRPRPIRTPRP the value was -0.228; for RRIRDRPPRLPRPRPRPIHCPRP, -0.135; for RRIRGRPPRLPRPRPRPFIYPRP, 0.0217.
As to RRIRGRPPRLPRPRPRPKITPRP, the “shrunken log2 fold change” value is 0.413.
As for RRIRPRPPRLPRPRPRPWGIPRP, the figure is -0.0138; as for RRIRTRPPRLPRPRPRPLAVPRP, -0.0185.
As to RRIRGRPPRLPRPRPRPHKKPRP, the “shrunken log2 fold change” value is -0.108.
With RRIRYRPPRLPRPRPRPCSEPRP, the “shrunken log2 fold change” value was -0.067.
For RRIRQRPPRLPRPRPRPLLWPRP the value was 0.091.
For RRIRCRPPRLPRPRPRPMPLPRP the value was -0.643; for RRIRRRPPRLPRPRPRPHNAPRP, 2.48.
For RRIRGRPPRLPRPRPRPGMLPRP the value was 0.498.
Take RRIRCRPPRLPRPRPRPCSIPRP: the “shrunken log2 fold change” value was -0.143.
As for RRIRFRPPRLPRPRPRPYRLPRP, the figure is 0.0227.
For RRIRFRPPRLPRPRPRPNNCPRP the value was -0.167; for RRIRKRPPRLPRPRPRPRSCPRP, 0.239; for RRIRERPPRLPRPRPRPTWWPRP, 0.412.
For RRIRRRPPRLPRPRPRPQVRPRP the value was -0.0161; for RRIRKRPPRLPRPRPRPQCYPRP, -0.114.
Consider RRIRVRPPRLPRPRPRPLRMPRP, for which the “shrunken log2 fold change” value is 0.191.
For the sequence RRIRTRPPRLPRPRPRPSGFPRP, the “shrunken log2 fold change” value stood at 0.131.
For RRIRLRPPRLPRPRPRPKVFPRP the value was 0.0303; for RRIRARPPRLPRPRPRPIPRPRP, 0.526.
Regarding RRIRWRPPRLPRPRPRPIYNPRP, the “shrunken log2 fold change” value is -0.896.
For RRIRNRPPRLPRPRPRPFCHPRP the value was -0.476.
For RRIRDRPPRLPRPRPRPNELPRP the value was -0.0493; for RRIRTRPPRLPRPRPRPNPSPRP, -0.128.
Take RRIRPRPPRLPRPRPRPSGRPRP: the “shrunken log2 fold change” value is 0.0933.
Turning to RRIRFRPPRLPRPRPRPSRDPRP, the “shrunken log2 fold change” value is 1.18.
As for RRIRSRPPRLPRPRPRPSTTPRP, the figure is -0.433.
For RRIRRRPPRLPRPRPRPPTIPRP the value was 0.324.
As for RRIRKRPPRLPRPRPRPFTIPRP, the “shrunken log2 fold change” value was 0.0665.
For RRIRLRPPRLPRPRPRPKVIPRP the value was -0.185; for RRIRGRPPRLPRPRPRPGPEPRP, 0.954; for RRIRARPPRLPRPRPRPCQHPRP, -0.274.
Regarding RRIRIRPPRLPRPRPRPQYNPRP, the “shrunken log2 fold change” value is -1.12.
As for RRIRERPPRLPRPRPRPMTYPRP, the “shrunken log2 fold change” value was -0.121.
Regarding RRIRRRPPRLPRPRPRPTLDPRP, the “shrunken log2 fold change” value turned out to be 0.809.
On to RRIRYRPPRLPRPRPRPMMDPRP, for which the “shrunken log2 fold change” value is -0.103.
As for RRIRTRPPRLPRPRPRPELKPRP, the figure is 0.432.
For RRIRQRPPRLPRPRPRPWDTPRP the value was 0.14; for RRIRTRPPRLPRPRPRPWIMPRP, -0.621; for RRIRNRPPRLPRPRPRPIHFPRP, -0.263.
With RRIRTRPPRLPRPRPRPRKVPRP, the “shrunken log2 fold change” value was -0.295.
For RRIRNRPPRLPRPRPRPVPNPRP the value was -0.0122; for RRIRCRPPRLPRPRPRPSSHPRP, -0.0983.
As for RRIRRRPPRLPRPRPRPVRLPRP, the figure is 1.08; as for RRIRGRPPRLPRPRPRPLYPPRP, 0.162.
RRIRMRPPRLPRPRPRPRSCPRP: the “shrunken log2 fold change” value was 0.274.
As for RRIRFRPPRLPRPRPRPMVYPRP, the figure is -0.389; as for RRIRLRPPRLPRPRPRPDRFPRP, -0.00452.
For RRIRMRPPRLPRPRPRPELQPRP, the “shrunken log2 fold change” value is -0.00152.
As for RRIRKRPPRLPRPRPRPSKGPRP, the figure is -0.0301; as for RRIRCRPPRLPRPRPRPMMCPRP, 0.0512.
As to RRIRGRPPRLPRPRPRPCGKPRP, the “shrunken log2 fold change” value came to 0.0957.
As for RRIRRRPPRLPRPRPRPVQGPRP, the figure is 0.223; as for RRIRMRPPRLPRPRPRPTQDPRP, 1.24.
For RRIRCRPPRLPRPRPRPKWDPRP the value was 0.13; for RRIRTRPPRLPRPRPRPGPEPRP, 0.0888.
As for RRIRDRPPRLPRPRPRPIMDPRP, the figure is 0.308; as for RRIRARPPRLPRPRPRPMIVPRP, -0.262; as for RRIRKRPPRLPRPRPRPFIPPRP, -0.543.
With RRIRQRPPRLPRPRPRPNKVPRP, the “shrunken log2 fold change” value was -0.468.
On to RRIRLRPPRLPRPRPRPMDTPRP, for which the “shrunken log2 fold change” value was -0.323.
RRIRYRPPRLPRPRPRPYWIPRP: the “shrunken log2 fold change” value was -0.222.
As for RRIRERPPRLPRPRPRPTNIPRP, the figure is -0.905; as for RRIRPRPPRLPRPRPRPEVEPRP, -0.00972; as for RRIRHRPPRLPRPRPRPFYWPRP, -0.0655.
For RRIRKRPPRLPRPRPRPDYCPRP the value was 0.0953.
Consider RRIRDRPPRLPRPRPRPEMRPRP, for which the “shrunken log2 fold change” value was determined as 1.29.
In the case of RRIRLRPPRLPRPRPRPQPAPRP, the “shrunken log2 fold change” value was found to be 0.294.
As for RRIRTRPPRLPRPRPRPPYQPRP, the figure is 0.0802; as for RRIRFRPPRLPRPRPRPSEDPRP, 0.00214; as for RRIRNRPPRLPRPRPRPYTAPRP, -0.502.
RRIRGRPPRLPRPRPRPNDQPRP: the “shrunken log2 fold change” value was 0.265.
As for RRIRCRPPRLPRPRPRPWFMPRP, the figure is -0.776; as for RRIRYRPPRLPRPRPRPFYTPRP, -1.19; as for RRIRERPPRLPRPRPRPWTPPRP, -0.15.
As for RRIRMRPPRLPRPRPRPKPPPRP, the figure is 1.64; as for RRIRIRPPRLPRPRPRPQSPPRP, 0.0218; as for RRIRYRPPRLPRPRPRPPFIPRP, -0.637.
As for RRIRRRPPRLPRPRPRPIYPPRP, the figure is -0.2.
On to RRIRERPPRLPRPRPRPKQSPRP, for which the “shrunken log2 fold change” value was -0.0888.
For RRIRERPPRLPRPRPRPLAPPRP the value was 0.101.
As to RRIRHRPPRLPRPRPRPECRPRP, the “shrunken log2 fold change” value stood at 0.0764.
As for RRIRLRPPRLPRPRPRPTQKPRP, the figure is 0.194.
For RRIRLRPPRLPRPRPRPVQDPRP the value was -0.105.
As for RRIRHRPPRLPRPRPRPPRWPRP, the figure is 0.137; as for RRIRMRPPRLPRPRPRPSMIPRP, 0.229.
With RRIRRRPPRLPRPRPRPNGNPRP, the “shrunken log2 fold change” value was determined as 0.0494.
Regarding RRIRWRPPRLPRPRPRPIDHPRP, the “shrunken log2 fold change” value is -0.166.
As for RRIRNRPPRLPRPRPRPKKNPRP, the figure is -0.0707.
Turning to RRIRERPPRLPRPRPRPLWVPRP, the “shrunken log2 fold change” value is -0.109.
As to RRIRWRPPRLPRPRPRPPTYPRP, the “shrunken log2 fold change” value is -0.104.
With RRIRFRPPRLPRPRPRPSCFPRP, the “shrunken log2 fold change” value was -0.0773.
As for RRIRPRPPRLPRPRPRPRHHPRP, the figure is -0.0806.
RRIRMRPPRLPRPRPRPYAPPRP: the “shrunken log2 fold change” value was -0.24.
For RRIRIRPPRLPRPRPRPMGGPRP the value was 0.38.
As for RRIRGRPPRLPRPRPRPQCTPRP, the figure is 0.085.
For RRIRLRPPRLPRPRPRPPCSPRP the value was -0.0182.
For RRIRHRPPRLPRPRPRPCRSPRP, the “shrunken log2 fold change” value was -0.0622.
As for RRIRFRPPRLPRPRPRPPSKPRP, the figure is -0.148; as for RRIRCRPPRLPRPRPRPSMLPRP, -0.727; as for RRIRVRPPRLPRPRPRPNTFPRP, -0.521.
For RRIRTRPPRLPRPRPRPDMFPRP the value was -0.0274.
As for RRIRIRPPRLPRPRPRPQMKPRP, the “shrunken log2 fold change” value is -0.747.
As to RRIRLRPPRLPRPRPRPCTFPRP, the “shrunken log2 fold change” value is -0.0569.
For RRIRWRPPRLPRPRPRPETTPRP the value was 0.234; for RRIRGRPPRLPRPRPRPFDVPRP, 0.147.
For RRIRMRPPRLPRPRPRPAGQPRP the value was -0.00902.
For RRIRIRPPRLPRPRPRPDSGPRP the value was 0.00524.
Turning to RRIRSRPPRLPRPRPRPSQKPRP, the “shrunken log2 fold change” value is -0.158.
For RRIRARPPRLPRPRPRPVAAPRP the value was 1.54.
